This is an account of results in US6669951B2, “Compositions and methods for enhancing drug delivery across and into epithelial tissues” (CellGate, Inc., priority 1999, dated 2003).

In one series the test system is skin of nude mice. The experiment in a line: Penetration of biotinylated conjugates into skin of nude mice (streptavidin staining). The settings on record: 1 mM-100 μM in PBS, nude mice, thirty, sixty, 120 minutes. As to the method:
Samples (100 μl) were applied as a liquid without excipient, prevented from dispersing by a Vaseline™ barrier, and allowed to penetrate for fifteen minutes. At the end of this period the animal was sacrificed, the relevant sections of skin were excised, embedded in mounting medium (OCT), and frozen. Frozen sections (5 microns) were cut using a cryostat, collected on slides, and stained with fluorescently labeled streptavidin (Vector Laboratories, Burlingame, Calif.). The slides were fixed in acetone at 4° C. for ten minutes, air dried, soaked in PBS for five minutes, blocked with normal goat serum for five minutes, and washed with PBS for five minutes. The section was stained by incubation with fluorescently labeled streptavidin at 30 μg/ml for thirty minutes, washed with PBS, counterstained with propidium iodide (1 μg/ml) for two minutes, and the section was mounted with Vectashield™ mounting media. Slides were analyzed by fluorescent microscopy. Parallel studies were done using streptavidin-horse radish peroxidase rather than fluorescein-streptavidin. The biotinylated peptide was visualized by treatment of the sections with the horseradish peroxidase substrate diaminobenzadine, and visualization with light microscopy.
Alternatively, sample (100 μl) was applied as a liquid without excipient and prevented from evaporating by wrapping plastic wrap over the sample sealed with Vaseline™. […] At the end of this period animal was sacrificed, the relevant section of skin was excised, embedded in mounting medium (OCT) and frozen. […] Slides were analyzed by fluorescent microscopy.
At the end of this period animal was sacrificed, the relevant section of skin was excised, embedded in mounting medium (OCT) and frozen. […] Slides were analyzed by fluorescent microscopy
(§1) At the end of this period animal was sacrificed, the relevant section of skin was excised, embedded in mounting medium (OCT) and frozen. […] Slides were analyzed by fluorescent microscopy.
as §1

The nature of series [1]: Half-life / release of conjugate in buffer. Type of series: physicochemical.

Read-outs that look alike come from different tables or passages of the source.

What is called half-life is the time needed for the level to fall by half in the phase considered.

`CC(=O)O[C@H]1C(=O)[C@@]2(C)[C@H]([C@H](OC(=O)c3ccccc3)[C@]3(O)C[C@H](OC(=O)[C@H](OC(=O)NCCCC[C@H](NC(=O)[C@@H](CCCNC(=N)N)NC(=O)[C@@H](CCCNC(=N)N)NC(=O)[C@@H](CCCNC(=N)N)NC(=O)[C@@H](CCCNC(=N)N)NC(=O)[C@@H](CCCNC(=N)N)NC(=O)[C@@H](CCCNC(=N)N)NC(=O)[C@@H](CCCNC(=N)N)NC(=O)[C@@H](CCCNC(=N)N)NC(=O)[C@@H](CCCNC(=N)N)NC(=O)CCCCCNC(=O)CCCC[C@@H]4SC[C@@H]5NC(=O)N[C@@H]54)C(N)=O)[C@@H](NC(=O)c4ccccc4)c4ccccc4)C(C)=C1C3(C)C)[C@]1(OC(C)=O)CO[C@@H]1C[C@@H]2O` [B-aca-r9-K-taxol]: the “penetration of drug conjugates into skin” value in the series with skin of nude mice is “effectively entered into and across the epidermis and into the dermis of the skin of nude mice”. With `C/C=C/C[C@@H](C)[C@@H](OC(=O)CN(Cc1ccccc1)C(=O)CNCC(=O)N[C@H](CCCNC(=N)N)C(=O)N[C@H](CCCNC(=N)N)C(=O)N[C@H](CCCNC(=N)N)C(=O)N[C@H](CCCNC(=N)N)C(=O)N[C@H](CCCNC(=N)N)C(=O)N[C@H](CCCNC(=N)N)C(=O)N[C@H](CCCNC(=N)N)C(=O)O)[C@H]1C(=O)N[C@@H](CC)C(=O)N(C)CC(=O)N(C)[C@@H](CC(C)C)C(=O)N[C@@H](C(C)C)C(=O)N(C)[C@@H](CC(C)C)C(=O)N[C@@H](C)C(=O)N[C@H](C)C(=O)N(C)[C@@H](CC(C)C)C(=O)N(C)[C@@H](CC(C)C)C(=O)N(C)[C@@H](C(C)C)C(=O)N1C` [CGC1072], the half-life result was “approximately ninety” in series [1] (PBS pH 7.4 (37° C. where stated)) and 1.5 h in series [1] (buffer, PBS, pH 7.4 at 37° C., read-out: half life (converted)). On to `CC(=O)O[C@H]1C(=O)[C@@]2(C)[C@H]([C@H](OC(=O)c3ccccc3)[C@]3(O)C[C@H](OC(=O)[C@H](OC(=O)NCCCC[C@H](NC(=O)[C@@H](CCCNC(=N)N)NC(=O)[C@@H](CCCNC(=N)N)NC(=O)[C@@H](CCCNC(=N)N)NC(=O)[C@@H](CCCNC(=N)N)NC(=O)[C@@H](CCCNC(=N)N)NC(=O)CCCCCNC(=O)CCCC[C@@H]4SC[C@@H]5NC(=O)N[C@@H]54)C(N)=O)[C@@H](NC(=O)c4ccccc4)c4ccccc4)C(C)=C1C3(C)C)[C@]1(OC(C)=O)CO[C@@H]1C[C@@H]2O` [B-aca-r5-K-taxol], for which the “penetration of drug conjugates into skin” value with skin of nude mice was “very little uptake was seen”. Regarding `CC(=O)O[C@H]1C(=O)[C@@]2(C)[C@H]([C@H](OC(=O)c3ccccc3)[C@]3(O)C[C@H](OC(=O)[C@H](OC(=O)NCCCC[C@H](NC(=O)[C@@H](CCCNC(=N)N)NC(=O)[C@@H](CCCNC(=N)N)NC(=O)[C@@H](CCCNC(=N)N)NC(=O)[C@@H](CCCNC(=N)N)NC(=O)[C@@H](CCCNC(=N)N)NC(=O)[C@@H](CCCNC(=N)N)NC(=O)[C@@H](CCCNC(=N)N)NC(=O)CCCCCNC(=O)CCCC[C@@H]4SC[C@@H]5NC(=O)N[C@@H]54)C(N)=O)[C@@H](NC(=O)c4ccccc4)c4ccccc4)C(C)=C1C3(C)C)[C@]1(OC(C)=O)CO[C@@H]1C[C@@H]2O` [B-aca-r7-K-taxol], in the series with skin of nude mice, the “penetration of drug conjugates into skin” value was “effectively entered into and across the epidermis and into the dermis of the skin of nude mice”.
